Results on 17 sequences are retold here after the DeepSol protein solubility set.

The nature of this data set: soluble on expression in E. coli; label from the status in PepcDB or PDB records.
With “MGSDKIHHHHHHMKRLSLLERSRLPTNDLGNARRLFEAANGRLLWLADGAGGKGCWIAFDGIRWSADEGPMRALAFAQKAAVEICDEAHALRECTADELAEVYGRKFSKEMAEERAGQLWTWSIKSGDSAKTTAMQNQFKGLRDGDEGPFVTQVWQRDFDAQPMAYHCSNGTLRFVQDDAGTWSHVFEKGHRPDDRFMQVANVAYDAAAKAKAWIERMEVMHHDPVQRTALQRIYGMTLTALISDQAFYIFQGKGQDGKSVTNDVVCQLHGMYARKADPKTFLEGPTQQSSGPQSDIVRLAGDVRLVVMDEPKKNSTWDGQKIKQATGSEMIARGVHATTELSFTPHWQLIAECNGLPKAPSDDRGFRRRFKLYPWVVQFGVTPGVADEPVHLVKARLIGEGSGVLNWMIKGCVEWLNERVVPEPEAAKRATASFWSASSAMGEWIASHCDLSDPEAREEATPLYKAFRQFCIDRGDDETKIITQTTFGRQLNDAQIYRVPNNSTGKVERVGIRLKRVDELGGGALSTSGRDTFDDDVARFDADNRDPFGAP”, the “soluble on expression in E. coli” value is recorded as “not soluble”.

For “MGSDKIHHHHHHMKSYLTPLALLVSSVFSTVAYAETQLFVTTSSTQDAPLHIVYPTGIRIGQAVQDGLQQLPLYNKTNNKEVMPIYWLGAALVDLENTAVLETKRQQVLSQLAQMGEATNDSRYITKLAQLAQFLRGIKLGQRVMQPLDIDAIRITESYNAIIEGKYQLVLPPRPSTITLVGAVTQTGNMPWQSQTSSKDYLKQAGLLENAETSFVWIIQPDGNAIRQPIAYWNYQAQDIAPGATLFVEFSSLFDGYANLNENIIELLKNRTL”, the “soluble on expression in E. coli” value is listed as “not soluble”.

“MGSDKIHHHHHHMKTPLVITALSLCLPFMAHAGSSFVEGDDILAGEVELGATLTTGNTDTSSFKGRLALKHELGNWENQYLLEGLYKEDTETVTAKRYIVGAQGDYLIDHDSYIFSNMNYEVDPFTGYEYSFTAASGYGHKFINDDRTKLKAEIGPGFIYQKLDSTLAAIEGYDTDKSVVAHAVINFETKLGDSSKFGQKLVMDMGEKIDARSETSLTANIVGALAMKFAVIVRYNSNPLDSKTSTDTETNMTLLYAF”: the “soluble on expression in E. coli” value is reported as “not soluble”.

On to “MGSDKIHHHHHHMKTPWLVNGKLANLYLLYGTERHLLEEWEREIVKAALPDGERFDYMKIDLNDQPLDAVLDEAETVPFLSDYRVVIAKPATFLTGAKDKKTHNVERLAEYIVQPADYAVVVLIVEAEKLDERKTIVKRLKDRAVILEAKKPTTEELFRFVMDAVNDKGYRMERPAIERLIFLTGEMWATLTRELDKLMLYAGDHPTIELEDVNLLVPRTLEDNVFQLTDYLMKRQLEPAIRLIRDLEKQGQEVLALLGLMARQYRMMLLSKRLAEQGYGERQIASKVGAHPYAIKLALQAGKRFTFAQLEQALVAITTTDEGMKTGRGDKRILFDALIVRLATL”, for which the “soluble on expression in E. coli” value is “not soluble”.

With “MGSDKIHHHHHHMKTRADLFAFFDAHGVDHKTLDHPPVFRVEEGLEIKAAMPGGHTKNLFLKDAKGQLWLISALGETTIDLKKLHHVIGSGRLSFGPQEMMLETLGVTPGSVTAFGLINDTEKRVRFVLDKALADSDPVNFHPLKNDATTAVSQAGLRRFLAALGVEPMIVDFAAMEVVG”, the “soluble on expression in E. coli” value is reported as “soluble”.

Take “MGSDKIHHHHHHMKTSLGPIQYCWPKEKVVEFYEAVAQSSVPLVYLGETVCSRRRELKFSDYLALAQMLKAAGKEVVLSTLTLIEAQSEFLELKKQVENGEFTIEANDVGAIYLAKEHGIPFVCGPSINSYNAATLKKFASWGMQRFVMPLELSKAWLTQVLDDLAPRQVEVEVFGHGFMPLAHSARCFTARHKGLTKDKCQTICIENPEGLLVQTQEDQPLLRLNGIQTQSANYMDLCDQQTQMQALGVDYFRISPSSLASIALADKLPAKSASHDRQCNGYWHQLPGLALS”: the “soluble on expression in E. coli” value is reported as “not soluble”.

Regarding “MGSDKIHHHHHHMKTTALRLYGKRDLRLETFDLPEMQEDEILATVVTDSLCLSSWKEANLGENHKKVPDDVTTNPIIIGHEFCGDILAVGKKWQHKFQPGQRYVIQANLQLPDRPDCPGYSFPWVDGEATHVVIPNEVMEQYCLLAYDGETYFEGSLVEPLSCVIGAFNANYHLQEGSYNHTMGIRPQGHTLILGGTGPMGLLAIDYALHGPVNPSLLVITDTDNDKLSYARKHYPSEPQTLIHYLNATDAAFDTLMALSGGHGFDDIFVFVPNEGLVTLASSLLATDGCLNFFAGPQDKHFSAPINFYDVHYAFTHYVGTSGGNTDDMRAAVKLIEEKKVQAAKVVTHILGLNAAGETTLELPAVGGGKKLVYTGKYLPLTSLTQIQDQALAAILARHQGIWSGEVEQYLLAHAEAISHD”, the “soluble on expression in E. coli” value was “not soluble”.

As to “MGSDKIHHHHHHMKVGIDAGGTLIKIVQEQDNQRTFKTELTKNIDQVVEWLNQQQIEKLCLTGGNAGVIAENINIPAQIFVEFDAASQGLGILLKEQGHDLADYIFANVGTGTSLHYFDGQSQRRVGGIGTGGGMIQGLGYLLSQITDYKQLTDMAQHGDRNTIDLKVRHIYKDTEPPIPGDLTAANFGHVLHHLDADFTPSNKLAAVIGVVGEVVTTMAITVAREFKTENIVYIGSSFHNNALLRKVVEDYTVLRGCKPYYVENGAFSGAIGALYLEK”, the “soluble on expression in E. coli” value was “not soluble”.

With “MGSDKIHHHHHHMKVHLIGHASLFVETLDCNILMDPLLWNPGISEGMQDICPKRQVLHDQIPEFDILVISHQHIDHFNIRSLANLPKHVDVLIPKDQFLETCLRKLGYRHIYPLKDFNEVRIGSTRLVATRSENRVPEYGMIFADSDGVFWNQVDSIVNAQTINEVKSRYPQINFLLAPWQPLLQIQYQYNECVIFPYASYSHLLKIIGLTAPKAIAPGANGFKQINGSSWLNQIVFPVTREQFCHDVQQAYPTIQDRIFSFDPGDVITLNNGEVSHSPQKSTFVKKLADDSDSLYFSPVNTDSKLIDDNPEGYDIEQMKSVIEEEICIHLTKFFNDKKDSLFMEYGYWKAIYQLEVIFPTHSEAWYFDFSEHSIQCRRGKNPLANVFTLIAASSFYGLLKGIKGWDYANFGGYYRCFNKVYQATLYGIIRPFDDSNQGIPDPLSLKFPYKEVYERVRFYEIEKWGQVNDEQTIDKNSQNPMVIIGNTLIKPQHKVQCI”, the “soluble on expression in E. coli” value is “not soluble”.

As to “MGSDKIHHHHHHMKVIKRLERYLSAAFSLGRIKSMSKDAQREIAELRLELGTLSQELKHTRQETERMWAWMRRHEALADDLVSVSRREAEVLKRTGQSDTALLLRMFSDLSRRIDGGESGRPDEKAPSSNGLPSSTGFEMFKDAFYHRFENQWRGAPEEISQRLKVYLPDVEAAWARAENKPIFDIGCGRGEWLGLLRQHGMEGIGFDTNAVQIKEGQAAGLDLRLGDALEALAQAEDNSLSVISAHHLIEHLPFDSVAWLTREAGRVLAPGGLLLFETPNTRNVLVGATTFYTDPTHLKPMPEQVMGVLLETAGFEPVDIRHINPHERLGEFLDRPGFDNELAQLMFGPQDLAILGIKSKDK”, the “soluble on expression in E. coli” value is “not soluble”.

“MGSDKIHHHHHHMKVLLIIPAYNEEENILRTIASIETFKQEVTHFQHELDYVVINDGSTDGTKQILEANQINAIHLVLNLGIGGAVQTGYKYALENEYDVAVQFDGDGQHDINSLPILLEPLAEGKCDFSIGSRFIPGNEASFQSTKMRRFGIRLLSFCIRMASGKTIYDVTSGYRAGNRKVIAFFAKRYPTNYPEPESIVHLIKKRFVIVERPVNMMERLGGVSSIRALASVKYMLEVGSAILIAAFMKEGD”: the “soluble on expression in E. coli” value was “not soluble”.

On to “MGSDKIHHHHHHMKYLIVVAHPDDEVLGAGASISRWTQNGDIVDVAIMCAEAKARAFRPDDNELEDDTNASTKYLGVDRIFEATFPNIEMNTVPHLRLVQFIESAIKESEPDIVITHHPADTNNDHLQTSMACQEAIRLFQRRPEVKRVKEFWYMEVPSCTEWAINNAMNLFRPNCYVEVGQEGVDAKITALGMYRGVMRPYPHPRSAEYITGLAAVRGSQWGTNYAESFEIVLREY”, for which the “soluble on expression in E. coli” value is on record as “not soluble”.

In the case of “MGSDKIHHHHHHMLCNETTSTRDLILLGLKRHGERSVGEMAKELEITEMAVRRHIQALEKDGFVQTKLVRQAMGRPTTKYLLTEKGEERFPRNYLPLTLGFLKDIEELSGIDMIHVLFEKRKERLLAEYANQMKGCSFSERVEVLAQIQNDNGYMVEWKKIDDDTYQFIEYNCPISQVAKAYPVACACEKKLFKELLQTEAVVDNCCAAKDEAGYCSYTLKKPSVDG”, the “soluble on expression in E. coli” value was “not soluble”.

For the sequence “MGSDKIHHHHHHMLDAQHIQALKEIVGEENCFDDKAHKLAYCYDATRNRYEPDAVIFPRCEEDVSRLLAYCNTHKITIVPRGAGSGFTGGSLPVNGGIVLAFEKHMNKILEIDMENMVARVQPGVVNKRLQEAVEAMGLFYPPDPASEEYSTLGGNVSENAGGMRAAKYGITKDYVMALRAVLPNGDIIRAGKKTIKDVAGYNIAGILIASEGTLAVITEITLKLLSKPKLRQSAMGVFPTIESAMNAVYKTMAAGVTPVAMEFLDNLTIRAVESKFSKGLPVEAGAILITDMDGNLPEEIELQMAKIEEKFKENGALSFKKAASEEEAKDLWFARRNASQSVTIYGKKKLNEDITVPRSKLPELLQRINAISERYGVKTPCFGHTGDGNVHVNVMVEDGSDPKQLEIGHQAIEEIFKAAVELEGTLSGEHGIGISKAPFMHLAFTPEEMNLFRAIKQAFDPNNILNNGKMAL”, the “soluble on expression in E. coli” value is “not soluble”.

As for “MGSDKIHHHHHHMLDIHWLKTFVTLAEHKHFGKAATALHMTQPNVSLHIKQLEQSTRVKLIDRNPFRLTQAGFRLLESSQKTLMELQICQADLNAINDLSQGTLTIAASDIISRLLLIQPFQLFKAEFPGIDFSLLNTTSSQASELVKNAEADLGFVIAQKESQPLHFTELQQIKWCAIGDNLQQWQQANLSVDTPLAEQPTLILLGHDTRTRELLDPALPSLNLPNYRIMEVGSVDAQIDWAEAGFGVAIVPEFSVYTKANLTTKVTPLPQFPTTSLGYIVRQNQILSKAIKQLLYWVNQEIIRSQR”, the “soluble on expression in E. coli” value is “not soluble”.

In the case of “MGSDKIHHHHHHMLDLINVSYDTQIPNNVGLSQDKKVLKALEKWHPGYINWWNDLIPQNFQESLVYLRTAVSVDPKGWAKFDYVKMPEYRWGVLLAPQVENRTIPCGEHYGQPAWQEVPGEYRNLLKRLIVIQGDTEPASVEQQRLLALTAPSLYDMRNLFQVNVEEGRHLWAMVYLLHKYFGRDGREEADDLLRRQSGSEEAPRMLGAFNEETPDWLSFFMFTYFTDRDGKMQLESLAQSGFDPLSRTCRFMLTEEAHHMFVGETGVGRTIERTCQVMKENGIDDPYDTGRIRDLGVIDLPLIQKKLNLHYTLSLDLFGQEVSTNAANAFNAGIKGRYMENRLTDDHQLQQDTYTVWDFEDGKAVQKQVAALTAINMRLRDDYTKDAAGGVGRWNKIIEKHGVDFQLSLPHEAFHRKIGVFADKHFDPSGQPVSGAEYDAGLPKWLPTHADGDFIQSLMKPCYEPGQYARWIAPPKVGIDNRPGDFEYVKLHMA”, the “soluble on expression in E. coli” value is listed as “not soluble”.

On to “MGSDKIHHHHHHMLDQIKAHLLDSINDIVSSANQFVLHPEKDFSRQSQLTMKTMIQAILTMGGNTLAKELLDLDLPVSQSAFVQRRYQIKHQAFKTLFRDITSKIPISDNLPILAVDGSDVILPRNRFDKTTSFQTGPHHTPYNLIHINALYTLEQEIYHDLRIQDNREVDERAAFIDMMKTSSFKQALVIMDRGYESYNVMAHCQERNWSYIIRIRDGNHSMKSGFNLPDTPCFDEAFDLNICRKQTNDMKELYRDFPNQYHFLPHNASFDFLLNSSRKSDPLQFYELHFRMVRLEIKPGFFETLVTNTDYSPEKLKELYAYRWGIETSFRDLKYSIGLTHFHAKKKEGILQEIYARFINFNVCKWLTSHVAIKTSKLKQTYKICFSDAVYACRKFLRNKLTSFQLETYIAKHLSIIRPNRTFQRKIKSKAPVSFTYRVT”, for which the “soluble on expression in E. coli” value was “not soluble”.
